Measured values taken from patent US20080311034A1 (published 2008).

Key:
[1] = biological target: T1, recombinant human His-tagged FcγRIIIa (extracellular domain made at Centocor) (human, UniProt P08637 17-208); assay: ELISA, His-tagged FcγRIIIa captured on HisGrab plate
T1 construct: extracellular domain; also called CD16a; recombinant, soluble, human FcγRIIIa
Procedure: (§1) FcγRIIIa (CD16a) ELISA—A human FcγRIIIa binding assay was done in ELISA format similar to the assay for FcγRI above. 50 μl of a 2 μg/ml solution of recombinant human His-tagged FcγRIIIa (extracellular domain made at Centocor) in ELISA buffer (PBS, 4 mg/ml BSA, 0.01% Tween-20) was added to each well of HisGrab 96 well plates (Pierce #15142) (Powers G., Notebook 10378, 19-23). The plate was incubated for 3 hours at room temp. The plates were blocked with 200 μl of Starting Block (Pierce #15142) for 30 min, and then washed 3× with 300 μl of wash buffer (PBS, 0.01% Tween-20) on a plate washer. Serial dilutions of the CNTO 860 test samples were made in Starting Block buffer and 50 μl per well of each titration were added in duplicate to the FcγRIIIa-coated plates. The plates were incubated for 1 hour. The plates were washed 3× with 300 μl of wash buffer on a plate washer. 50 μl of a 1:10,000 dilution of HRP-labeled goat F(ab′)2 anti-human IgG F(ab′)2 (Jackson Immunoresearch # 109-036-097) in Starting Block buffer was added to each well. The plates were incubated for 30 minutes. The plates were washed 3× with 300 μl of wash buffer on the plate washer. 50 μl per well TMB substrate (RDI #RDI-TMBSU-1L) was added to each well and developed for 3-5 minutes. The reaction was stopped by adding 100 μl 10.2 N sulfuric acid. The plates were read at OD450 on an Envision plate reader. Antibody concentration vs OD450 values were graphed for each CNTO 860 variant and the antibody concentration needed to achieve an OD450 reading of 0.14 established by interpolation within each data curve.

[2] = biological target: T2, recombinant polyhistidine tagged mouse FcγRI (R&D Systems) (mouse, UniProt P26151 25-297); assay: ELISA, His-tagged mouse receptor captured on copper-coated plate
T2 construct: Bought; also called murine FcγRI
T2 sequence (looked up): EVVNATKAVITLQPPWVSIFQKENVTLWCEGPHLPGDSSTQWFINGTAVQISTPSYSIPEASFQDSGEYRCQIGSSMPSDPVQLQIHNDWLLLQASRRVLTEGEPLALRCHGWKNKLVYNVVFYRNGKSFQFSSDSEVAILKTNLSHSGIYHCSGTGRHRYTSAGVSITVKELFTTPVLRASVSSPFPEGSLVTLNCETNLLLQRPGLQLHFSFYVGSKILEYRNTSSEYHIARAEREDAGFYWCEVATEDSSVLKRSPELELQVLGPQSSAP
Procedure: (§2) Commercially-available recombinant polyhistidine tagged mouse FcγRI, FcγRII, FcγRIII, and FcγRIV (R&D Systems) were diluted to 1 μg/ml in PBS and 100 μl/well was captured onto copper-coated plates (Pierce) overnight at 4° C. Plates were washed three times with wash buffer (0.15M NaCl, 0.02% Tween 20). Non-specific binding was blocked using 200 μl/well SuperBlock (Pierce) for 15 minutes at room temperature. Plates were washed three times as above. […] Plates were washed three times as above to remove unbound mAb. CNTO 860 variants that bound to plated receptors were detected using 100 μl/well HRP-labeled goat F(ab′)₂ anti-human IgG F(ab′)₂ (Jackson ImmunoResearch) diluted 1:5,000 in PBS incubated at room temperature for 1 hour. Plates were washed five times using wash buffer as above, and developed using 100 μl/well TMB Stable Stop substrate (Fitzgerald Industries) stopped with 0.5M HCl. Absorbance was detected at 450 nm.
(§3) All binding assays were in an ELISA format, with recombinant soluble receptor captured on coated EIA plates.

[3] = biological target: T3, recombinant polyhistidine tagged mouse FcγRIII (R&D Systems) (mouse, UniProt P08508 31-215); assay: as above
T3 construct: Bought
T3 sequence (looked up): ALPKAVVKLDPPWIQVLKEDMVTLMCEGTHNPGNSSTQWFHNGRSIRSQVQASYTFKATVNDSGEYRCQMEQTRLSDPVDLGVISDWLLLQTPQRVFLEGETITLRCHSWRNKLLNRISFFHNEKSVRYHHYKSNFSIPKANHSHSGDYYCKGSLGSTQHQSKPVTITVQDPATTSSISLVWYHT
Procedure: as §2, §3

[4] = biological target: T4, recombinant polyhistidine tagged mouse FcγRII (R&D Systems) (mouse, UniProt P08101 40-217, limits assumed); assay: as above
T4 construct: Bought; also called FcRII
T4 sequence (looked up): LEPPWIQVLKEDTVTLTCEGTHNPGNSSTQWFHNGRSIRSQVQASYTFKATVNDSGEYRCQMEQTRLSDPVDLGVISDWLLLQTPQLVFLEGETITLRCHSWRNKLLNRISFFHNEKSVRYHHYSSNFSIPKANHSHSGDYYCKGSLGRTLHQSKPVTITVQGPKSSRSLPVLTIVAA
Procedure: as §2, §3

[5] = biological target: T5, recombinant polyhistidine tagged mouse FcγRIV (R&D Systems) (mouse, UniProt A0A0B4J1G0 21-203); assay: as above
T5 construct: Bought
T5 sequence: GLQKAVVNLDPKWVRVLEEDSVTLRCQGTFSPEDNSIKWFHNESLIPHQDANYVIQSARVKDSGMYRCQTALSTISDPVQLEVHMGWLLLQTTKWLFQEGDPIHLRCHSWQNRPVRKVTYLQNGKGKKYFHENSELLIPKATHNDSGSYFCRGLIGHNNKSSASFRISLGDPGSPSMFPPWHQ
Procedure: as §2, §3

[6] = biological target: FcγRIIIa on NK cells of human PBMC (human, UniProt P08637 17-254); assay: cell-based or functional assay
Chain of FcγRIIIa on NK cells of human PBMC (P08637 17-254): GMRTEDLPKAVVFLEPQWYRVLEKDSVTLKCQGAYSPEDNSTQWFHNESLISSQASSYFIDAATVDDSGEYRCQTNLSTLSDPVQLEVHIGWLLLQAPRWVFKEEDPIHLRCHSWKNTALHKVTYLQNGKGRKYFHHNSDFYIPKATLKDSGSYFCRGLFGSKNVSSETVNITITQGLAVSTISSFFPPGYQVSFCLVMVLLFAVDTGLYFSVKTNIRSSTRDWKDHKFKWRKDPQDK

[7] = biological target: T6, recombinant human FcγRIIb (R&D Systems #1875-CD-050) (human, UniProt P31994 46-217, limits assumed); assay: AlphaScreen
T6 construct: Bought; also called CD32b; recombinant, soluble, human FcγRIIb
T6 sequence (looked up): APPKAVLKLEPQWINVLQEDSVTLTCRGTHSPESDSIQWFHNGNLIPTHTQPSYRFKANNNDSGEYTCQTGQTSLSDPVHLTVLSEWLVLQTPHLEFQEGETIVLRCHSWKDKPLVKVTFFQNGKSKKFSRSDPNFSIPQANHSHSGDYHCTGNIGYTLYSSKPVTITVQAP
Procedure: FcγRIIa (CD32a) AlphaScreen—Nickel acceptor beads (Perkin Elmer #6760619C) were diluted 1:50 in assay buffer (PBS, pH 7.4, 4 mg/ml BSA, 0.01% Tween-20), and 27.5 μl were added to each well of a Nunc V-bottom polypropylene plate (VWR # 62409-108) (Powers G., Notebook 9006, pp. 169-175, 182-185). A 2.0 μg/ml solution of recombinant human His-tagged FcγRIIa (R&D Systems #1330-CD-050) was prepared in assay buffer and 27.5 μl added to each well of a separate Nunc V bottom polypropylene plate. Titrations of test Abs were prepared in the Nunc V bottom polypropylene plate starting at 30 μg/ml. A 2 μg/ml solution of biotinylated goat F(ab′)₂ anti-human IgG F(ab′)₂ (Jackson Immunoresearch #109-066-097) was prepared in assay buffer and 27.5 μl added to each well of another Nunc V bottom polypropylene plate. A 1:50 dilution of streptavidin donor beads (PerkinElmer # 6760002) was prepared in assay buffer and 27.5 μl added to each well of another Nunc V bottom polypropylene plate. A volume of 5 μl of each reagent was added to the corresponding quadrants of a low-volume, non-binding white 384-well plate (Corning # 3673) in the following order: acceptor beads, FcγRIIa, test Ab, biotinylated anti-human IgG F(ab′)₂, and streptavidin donor beads. The plates were incubated for 30 minutes with shaking and the O.D.s determined using an Envision plate reader.
FcγRIIb (CD32b) AlphaScreen—The assay was performed as described above for FcγRIIa except that FcγRIIa was replaced with FcγRIIb (R&D Systems #1875-CD-050).

[8] = biological target: T7, recombinant human His-tagged FcγRI (extracellular domain, R&D Systems #1257-FC-050) (human, UniProt P12314 16-292); assay: ELISA
T7 construct: extracellular domain; Bought; also called CD64; recombinant, soluble, human FcγRI
T7 sequence (P12314 16-292): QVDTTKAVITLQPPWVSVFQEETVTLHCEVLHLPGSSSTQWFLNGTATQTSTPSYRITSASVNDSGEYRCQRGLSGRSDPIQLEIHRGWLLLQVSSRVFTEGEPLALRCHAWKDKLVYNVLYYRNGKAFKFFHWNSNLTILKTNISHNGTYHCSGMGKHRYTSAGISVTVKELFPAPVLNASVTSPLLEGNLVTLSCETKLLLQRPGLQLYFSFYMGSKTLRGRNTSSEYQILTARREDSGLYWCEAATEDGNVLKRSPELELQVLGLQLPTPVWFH
Procedure: FcγRI (CD64) ELISA —50 μl of a 1 μg/ml solution of recombinant human His-tagged FcγRI (extracellular domain, R&D Systems #1257-FC-050) in ELISA buffer (PBS, pH 7.4, 4 mg/ml BSA, 0.01% Tween-20) was added to each well of HisGrab 96 well plates (Pierce #15142) (Powers G., Notebook 9006, pp. 166-168, 180-181). The plate was incubated with shaking for 3 hours. The plates were washed 3× with 300 μl of wash buffer (PBS, 0.01% Tween-20) on a plate washer. Serial dilutions of the CNTO860 antibody Fc-variant samples were made in ELISA buffer and 50 μl per well of each titration were added in duplicate to the FcγRI-coated plates. The plates were incubated with shaking for 1 hour. The plates were washed 3× with 300 μl of wash buffer on a plate washer. 50 μl of a 1:10,000 dilution of HRP-labeled goat F(ab′)₂ anti-human IgG F(ab′)₂ (Jackson Immunoresearch # 109-036-097) in ELISA buffer was added to each well. The plates were incubated with shaking for 30 minutes. The plates were washed 3× with 300 μl of wash buffer on the plate washer. 50 μl per well TMB substrate (RDI #RDI-TMBSU-1L) was added to each well and developed for 5 minutes. The reaction was stopped by adding 100 μl 0.2 N sulfuric acid. The plates were read at OD450 on an Envision plate reader.
as §1, with “minutes.” for “minutes. The plates were washed 3× with 300 μl of wash buffer on the plate washer. 50 μl per well TMB substrate (RDI #RDI-TMBSU-1L) was added to each well and developed for 3-5 minutes. The reaction was stopped by adding 100 μl 10.2 N sulfuric acid. The plates were read at OD450 on an Envision plate reader. Antibody concentration vs OD450 values were graphed for each CNTO 860 variant and the antibody concentration needed to achieve an OD450 reading of 0.14 established by interpolation within each data curve.”

T1 sequence (P08637 17-208): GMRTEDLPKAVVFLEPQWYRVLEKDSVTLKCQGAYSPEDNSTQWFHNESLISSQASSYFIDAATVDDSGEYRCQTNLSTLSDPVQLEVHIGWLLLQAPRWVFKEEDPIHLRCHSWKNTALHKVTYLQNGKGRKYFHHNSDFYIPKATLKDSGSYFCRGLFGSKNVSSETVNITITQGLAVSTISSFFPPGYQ

B1: CHO-CNTO 860 I332E/V264I (antibody, human IgG1, kappa)
heavy: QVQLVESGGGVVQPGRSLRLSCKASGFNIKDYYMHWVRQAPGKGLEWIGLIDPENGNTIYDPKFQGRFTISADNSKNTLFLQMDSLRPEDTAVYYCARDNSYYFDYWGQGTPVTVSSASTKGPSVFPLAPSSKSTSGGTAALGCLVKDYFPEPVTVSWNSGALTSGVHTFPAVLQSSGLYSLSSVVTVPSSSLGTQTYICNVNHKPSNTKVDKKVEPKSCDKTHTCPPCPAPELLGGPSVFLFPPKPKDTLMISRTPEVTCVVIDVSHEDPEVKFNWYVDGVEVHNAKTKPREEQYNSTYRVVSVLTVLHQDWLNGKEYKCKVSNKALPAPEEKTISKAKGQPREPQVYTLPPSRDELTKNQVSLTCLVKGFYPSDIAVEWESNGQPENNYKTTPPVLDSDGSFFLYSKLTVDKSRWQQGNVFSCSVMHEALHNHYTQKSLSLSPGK
light: DIQMTQSPSSLSASVGDRVTITCKASQDIRKYLNWYQQKPGKAPKLLIYYATSLADGVPSRFSGSGSGTDYTFTISSLQPEDIATYYCLQHGESPYTFGQGTKLEITRTVAAPSVFIFPPSDEQLKSGTASVVCLLNNFYPREAKVQWKVDNALQSGNSQESVTEQDSKDSTYSLSSTLTLSKADYEKHKVYACEVTHQGLSSPVTKSFNRGEC
modifications: Heavy chain N297 carries the CHO-type N-linked glycan (about 95% fucosylated); not carried by the letters.
notes: IgG1/kappa Fc variant; transiently expressed in CHO cells (p4187/p4146); EU numbering; also called V264I/I332E (CHO cell-derived); copies: 2 + 2
concentration (ng/ml) required for an O.D. value of 0.14 [1]: 900 ng/mL | ECOD1 (concentration required for an O.D. value of 1.0) [2]: 25800 ng/mL | ECOD1 (concentration required for an O.D. value of 1.0) [3]: 2000 ng/mL | ECOD1 (concentration required for an O.D. value of 1.0) [4]: 1700 ng/mL | ECOD1 (concentration required for an O.D. value of 1.0) [5]: 8 ng/mL | EC25 (ng/ml), ADCC of HCT116 cells by human PBMC [6]: 1 ng/mL

B2: CNTO 860 S239D/I332E (antibody, human IgG1, kappa)
heavy: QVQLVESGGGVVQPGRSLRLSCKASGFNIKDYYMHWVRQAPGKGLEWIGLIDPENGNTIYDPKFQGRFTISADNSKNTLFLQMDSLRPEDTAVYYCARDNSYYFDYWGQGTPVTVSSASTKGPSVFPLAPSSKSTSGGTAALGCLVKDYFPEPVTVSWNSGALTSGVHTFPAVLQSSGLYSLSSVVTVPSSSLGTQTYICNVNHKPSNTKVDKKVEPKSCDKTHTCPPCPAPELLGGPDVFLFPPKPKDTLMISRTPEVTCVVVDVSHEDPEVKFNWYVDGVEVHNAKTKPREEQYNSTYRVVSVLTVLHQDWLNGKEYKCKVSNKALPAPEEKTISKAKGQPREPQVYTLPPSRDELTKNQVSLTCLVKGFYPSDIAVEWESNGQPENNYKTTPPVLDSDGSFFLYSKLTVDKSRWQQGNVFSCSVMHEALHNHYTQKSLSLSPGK
light: DIQMTQSPSSLSASVGDRVTITCKASQDIRKYLNWYQQKPGKAPKLLIYYATSLADGVPSRFSGSGSGTDYTFTISSLQPEDIATYYCLQHGESPYTFGQGTKLEITRTVAAPSVFIFPPSDEQLKSGTASVVCLLNNFYPREAKVQWKVDNALQSGNSQESVTEQDSKDSTYSLSSTLTLSKADYEKHKVYACEVTHQGLSSPVTKSFNRGEC
modifications: N-linked glycan at Asn297 of the heavy chain (fucose content depends on host cell, CHO or YB2/0); not carried by the letters
notes: also called S239D/I332E double mutant; copies: 2 + 2
fold change in binding against WT (enhanced) [7]: ~6 fold

B3: CNTO 860 A330I (antibody)
heavy: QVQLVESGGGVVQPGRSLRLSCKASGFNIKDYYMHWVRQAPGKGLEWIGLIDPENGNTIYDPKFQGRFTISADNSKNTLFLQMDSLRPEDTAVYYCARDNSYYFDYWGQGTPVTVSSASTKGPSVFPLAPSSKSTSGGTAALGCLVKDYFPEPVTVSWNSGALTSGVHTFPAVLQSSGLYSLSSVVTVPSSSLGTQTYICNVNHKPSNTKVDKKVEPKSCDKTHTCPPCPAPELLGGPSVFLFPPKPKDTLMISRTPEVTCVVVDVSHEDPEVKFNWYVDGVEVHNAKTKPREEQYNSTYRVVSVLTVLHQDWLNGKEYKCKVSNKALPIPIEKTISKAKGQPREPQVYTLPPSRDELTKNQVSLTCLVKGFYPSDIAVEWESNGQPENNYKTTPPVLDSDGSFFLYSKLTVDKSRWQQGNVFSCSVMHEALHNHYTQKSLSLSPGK
light: DIQMTQSPSSLSASVGDRVTITCKASQDIRKYLNWYQQKPGKAPKLLIYYATSLADGVPSRFSGSGSGTDYTFTISSLQPEDIATYYCLQHGESPYTFGQGTKLEITRTVAAPSVFIFPPSDEQLKSGTASVVCLLNNFYPREAKVQWKVDNALQSGNSQESVTEQDSKDSTYSLSSTLTLSKADYEKHKVYACEVTHQGLSSPVTKSFNRGEC
modifications: N-linked glycan at Asn297 of the heavy chain (fucose content depends on host cell, CHO or YB2/0); not carried by the letters
notes: also called A330I variant; A330I single mutant; copies: 2 + 2
fold change in binding against WT (reduced) [7]: 500 fold

B4: CNTO 860 I332E (antibody)
heavy: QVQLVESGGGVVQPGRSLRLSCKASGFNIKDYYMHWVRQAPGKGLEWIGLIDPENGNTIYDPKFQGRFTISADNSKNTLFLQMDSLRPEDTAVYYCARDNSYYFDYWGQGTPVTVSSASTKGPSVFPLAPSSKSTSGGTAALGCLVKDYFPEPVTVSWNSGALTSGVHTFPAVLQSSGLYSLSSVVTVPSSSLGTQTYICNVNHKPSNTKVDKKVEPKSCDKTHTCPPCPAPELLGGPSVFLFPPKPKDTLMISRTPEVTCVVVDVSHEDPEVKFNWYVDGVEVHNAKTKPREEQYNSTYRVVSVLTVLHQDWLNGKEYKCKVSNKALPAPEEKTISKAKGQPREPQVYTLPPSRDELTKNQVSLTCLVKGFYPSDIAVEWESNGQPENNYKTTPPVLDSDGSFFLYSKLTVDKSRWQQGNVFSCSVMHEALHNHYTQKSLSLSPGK
light: DIQMTQSPSSLSASVGDRVTITCKASQDIRKYLNWYQQKPGKAPKLLIYYATSLADGVPSRFSGSGSGTDYTFTISSLQPEDIATYYCLQHGESPYTFGQGTKLEITRTVAAPSVFIFPPSDEQLKSGTASVVCLLNNFYPREAKVQWKVDNALQSGNSQESVTEQDSKDSTYSLSSTLTLSKADYEKHKVYACEVTHQGLSSPVTKSFNRGEC
modifications: N-linked glycan at heavy chain Asn297 (host cell not specified in these sentences); not carried by the letters
notes: also called I332E variant; I332E single mutant; copies: 2 + 2
fold change in binding against WT (enhanced) [8]: 2 fold
